Experimental data from article PMC10293748.

Target: SARS-CoV-2 RBDWT, His-tagged, soluble (SARS-CoV-2) (UniProt P0DTC2)
Assay: ELISA

soluble ACE2 (sACE2), commercially available, His-tagged (domain or fragment)
IC50: 179 nM
